# Molecular target: wildtype S. pyogenes Cas9 (S. pyogenes) (UniProt Q99ZW2)
# Assay: cell-based or functional assay
# Sequence of UniProt Q99ZW2 (Q99ZW2 whole entry): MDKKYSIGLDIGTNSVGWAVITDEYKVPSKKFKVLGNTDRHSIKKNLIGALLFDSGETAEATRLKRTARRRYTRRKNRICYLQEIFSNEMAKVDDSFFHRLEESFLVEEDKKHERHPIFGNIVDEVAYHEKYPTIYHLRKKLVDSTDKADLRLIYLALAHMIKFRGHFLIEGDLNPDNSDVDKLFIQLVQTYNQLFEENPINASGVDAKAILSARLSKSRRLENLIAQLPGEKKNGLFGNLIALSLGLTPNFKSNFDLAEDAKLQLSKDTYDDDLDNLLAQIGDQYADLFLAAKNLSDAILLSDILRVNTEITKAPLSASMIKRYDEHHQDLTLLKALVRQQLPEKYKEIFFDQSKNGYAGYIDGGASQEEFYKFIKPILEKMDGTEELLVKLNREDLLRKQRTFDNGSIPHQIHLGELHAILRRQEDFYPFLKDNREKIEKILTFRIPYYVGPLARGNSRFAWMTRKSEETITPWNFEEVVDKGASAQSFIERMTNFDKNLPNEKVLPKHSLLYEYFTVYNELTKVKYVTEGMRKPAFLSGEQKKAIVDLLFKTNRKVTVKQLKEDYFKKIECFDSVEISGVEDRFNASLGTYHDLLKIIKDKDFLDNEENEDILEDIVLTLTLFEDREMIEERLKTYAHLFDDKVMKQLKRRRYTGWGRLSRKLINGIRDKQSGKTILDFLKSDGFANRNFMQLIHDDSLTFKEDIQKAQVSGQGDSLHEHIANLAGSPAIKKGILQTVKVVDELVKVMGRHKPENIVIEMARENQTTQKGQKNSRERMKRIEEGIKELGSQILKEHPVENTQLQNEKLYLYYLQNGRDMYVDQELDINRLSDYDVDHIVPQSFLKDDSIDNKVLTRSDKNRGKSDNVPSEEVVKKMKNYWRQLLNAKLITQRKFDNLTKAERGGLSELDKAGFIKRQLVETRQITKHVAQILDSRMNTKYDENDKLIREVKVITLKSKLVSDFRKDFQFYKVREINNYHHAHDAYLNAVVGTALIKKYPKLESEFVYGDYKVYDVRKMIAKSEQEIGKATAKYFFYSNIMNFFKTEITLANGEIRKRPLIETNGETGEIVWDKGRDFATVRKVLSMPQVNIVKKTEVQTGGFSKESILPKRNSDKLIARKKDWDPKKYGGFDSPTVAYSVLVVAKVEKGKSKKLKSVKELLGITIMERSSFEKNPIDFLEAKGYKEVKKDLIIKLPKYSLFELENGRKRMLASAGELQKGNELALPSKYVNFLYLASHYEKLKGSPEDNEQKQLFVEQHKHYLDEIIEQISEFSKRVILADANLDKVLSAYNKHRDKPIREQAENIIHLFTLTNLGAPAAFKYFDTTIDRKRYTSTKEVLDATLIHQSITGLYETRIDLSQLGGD
substance,measurement,value
AcrIIA2-Cdt1 fusion protein,"HDR (GFP correction) in RPE1 reporter cells deficient of p53, AcrIIA2-Cdt1 protein co-transfected with WT CRISPR-Cas9 RNP",2 fold
same,"HDR (GFP correction) in RPE1 reporter cells, AcrIIA2-Cdt1 protein co-transfected with WT CRISPR-Cas9 RNP",3 fold
